Source: article PMC6561789 (Molecular microbiology, 2019)

Key:
AUC = target: the molecule itself; assay: AUC
SEC = target: the molecule itself; assay: SEC

Row | Protein | stoichiometry N (AUC) | stoichiometry N (SEC)
1 | HigA antitoxin (Proteus vulgaris, Rts1 plasmid), wild type (natural protein) MRQFKVSHPGEMIARDLEDMGVSGRRFAHNIGVTPATVSRLLAGKTALTPSLSIRIAAALGSTPEFWLRLQSNYDLRQLENQIDTSGIVLYGESNEQQQNAQEH | 2 | 
2 | HigA R40A variant (Proteus vulgaris, Rts1 plasmid) (natural protein) MRQFKVSHPGEMIARDLEDMGVSGRRFAHNIGVTPATVSALLAGKTALTPSLSIRIAAALGSTPEFWLRLQSNYDLRQLENQIDTSGIVLYGESNEQQQNAQEH |  | 2
